Source: patent publication US12144864B2, “Tubulysins and protein-tubulysin conjugates” (Regeneron Pharmaceuticals, Inc., priority 2018, dated 2024)

T1: STEAP2 endogenously expressed on C4-2 prostate cancer cells (human, UniProt Q8NFT2 1-490)
T1 sequence (looked up): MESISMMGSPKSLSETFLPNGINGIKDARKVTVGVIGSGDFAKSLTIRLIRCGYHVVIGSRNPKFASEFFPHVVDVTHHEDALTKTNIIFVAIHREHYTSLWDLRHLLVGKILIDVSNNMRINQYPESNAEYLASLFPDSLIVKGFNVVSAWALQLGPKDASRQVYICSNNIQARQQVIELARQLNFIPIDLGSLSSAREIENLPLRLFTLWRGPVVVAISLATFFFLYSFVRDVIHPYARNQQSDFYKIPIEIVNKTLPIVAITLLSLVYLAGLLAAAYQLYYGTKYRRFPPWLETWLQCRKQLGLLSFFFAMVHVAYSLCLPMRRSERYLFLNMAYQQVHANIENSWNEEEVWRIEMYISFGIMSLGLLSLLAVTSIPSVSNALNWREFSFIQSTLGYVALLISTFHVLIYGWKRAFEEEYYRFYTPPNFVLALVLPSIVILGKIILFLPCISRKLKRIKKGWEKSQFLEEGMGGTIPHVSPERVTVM


What was measured:
[1] = target: T1, STEAP2 endogenously expressed on C4-2 …; assay: cell-based or functional assay
C4-2 cells = assay: Cytotoxicity of anti-STEAP2 ADCs, payloads and reference compounds in C4-2 cells; assay type: cell-based, human; settings: at maximum concentration tested
Method: (§1) To test the ability of the disclosed tubulysin payloads to kill human cell lines, an in vitro cytotoxicity assay was performed. In vitro cytotoxicity of the disclosed payloads, as well as reference compounds, were evaluated using the CellTiter-Glo Assay Kit (Promega, Cat #G7573), in which the quantity of ATP present is used to determine the number of viable cells in culture. For the assay, C4-2, HEK293, or T47D cells were seeded at 4000 cells/well on Nunclon white 96-well plates in complete growth medium (DME high glucose:Ham's F12 at 4:1, 10% FBS, 100 units/ml Penicillin, 100 ug/ml streptomycin, 53 ug/ml glutatmine, 10 ug/ml insulin, 220 ng/ml biotin, 12.5 pg/ml T3, 12.5 ug/ml Adenine, 4 ug/ml transferrin for C42 cells; DME high glucose, 10% FBS, 100 units/ml Penicillin, 100 ug/ml streptomycin, 53 ug/ml glutatmine for HEK293; RPMI, 10% FBS, 100 units/ml Penicillin, 100 ug/ml streptomycin, 53 ug/ml glutatmine, 10 ug/ml insulin, 10 mM HEPEs, 200 nM Sodium Pyruvate for T47D cells) and grown overnight at 37° C. in 5% CO2. For cell viability curves, 1:3 serially diluted payloads were added to the cells at final concentrations ranging from 100 nM to […], including a no treatment control group, and were then incubated for 5 days. After the 5-day incubation, cells were incubated at room temperature with 100 μL of CellTiter-Glo reagents for 10 minutes. Relative luminescence units (RLU) were determined on a Victor plate reader (PerkinElmer). The IC50 values were determined from a four-parameter logistic equation over a 10-point response curve (GraphPad Prism). All IC50 values are expressed in molar (M) concentration. The percent cell killing (% kill) at the maximum concentration tested was estimated from the following formula (100−% viable cells). Averages±standard deviation (SD) are included where replicate experiments were performed.
To further test the ability of the disclosed tubulysin payloads, reference compounds, and antibody drug conjugates using these payloads, a cytotoxicity assay was performed using C4-2 cells as described in this example (see above). For these studies, anti-STEAP2 antibodies were conjugated to select tubulysins payloads, and the compounds were tested at concentrations starting at 100 nM with 3-fold serial dilution. All IC50 values are expressed in nM concentration and the percent cell killing at the maximum concentration tested was estimated from the following formula (100−% viable cells).

[2] = In vitro plasma stability of ADCs (DAR by LC-MS), mouse plasma; assay type: in vitro ADME; settings: 37° C., 50 μg/mL, DAR at 0 hr 3.8 (LP3 ADC), 4.0 (LP4 ADC), acetyl-hydrolyzed species counted as loss of drug
Method: (§2) To determine the plasma stability of representative ADCs containing the tubulysin payloads, ADCs were incubated in vitro with plasma from different species, and the DAR was evaluated after incubation at physiological temperature (37° C.) for 3 days.
(§3) For the assay, each ADC sample (anti-PRLR antibody-LP3 or anti-PRLR antibody-LP4) in PBS buffer was added to fresh pooled male mouse, cynomologus monkey, rat, or human plasma, separately, at a final concentration of 50 μg/mL in a 96-well plate, and subsequently incubated at 37° C. for 72 hours. After incubation, each sample (100 μL final volume) was individually frozen at −80° C. until analysis.
(§4) Affinity capture of the ADCs from the plasma samples was carried out on a KingFisher 96 magnetic particle processor (Thermo Electron). First, biotinylated extracellular domain of human PRLR expressed with a myc-myc hexahistidine tag (hPRLR ecto-MMH; SEQ ID NO: 17;100 μg/mL) was immobilized on streptavidin paramagnetic beads (In vitrogen, Cat #60210). Each plasma sample containing tubulysin ADCs (100 μL) was mixed at 600 rpm with 100 μL of the beads (the commercial beads come in volume) at room temperature for 2 hours in a 96-well plate. The beads were then washed three times with 600 μL of HBS-EP (GE healthcare, Cat #BR100188), once with 600 μL of H2O, and then once with 600 μL of 10% acetonitrile in water. […]

[3] = In vitro plasma stability of ADCs (DAR by LC-MS), rat plasma; assay type: in vitro ADME; settings: 37° C., 50 μg/mL, DAR at 0 hr 3.8 (LP3 ADC), 4.0 (LP4 ADC), acetyl-hydrolyzed species counted as loss of drug
Method: as §2, §3, §4

[4] = In vitro plasma stability of ADCs (DAR by LC-MS), human plasma; assay type: in vitro ADME; settings: 37° C., 50 μg/mL, DAR at 0 hr 3.8 (LP3 ADC), 4.0 (LP4 ADC), acetyl-hydrolyzed species counted as loss of drug
Method: as §2, §3, §4

HCT15/PRLR cells = assay: Cytotoxicity of anti-PRLR tubulysin ADCs and payloads in HCT15/PRLR cells with or without Verapamil; assay type: cell-based, human; settings: at maximum concentration tested; for % kill on HCT15/PRLR w/ Verapamil: with Verapamil; for % kill on HCT15/PRLR w/o Verapamil: without Verapamil
Method: as §1
Bioassays were developed to assess the efficacy of an anti-PRLR antibody conjugated with the disclosed tubulysin payloads and reference payloads. It was developed to assess the activity of tubulysin payloads after internalization of an anti-PRLR-tubulysin ADC into cells, release of the payload, and subsequent cytotoxicity. For this assay, a HCT15 line was engineered to express human full length PRLR (accession #NP_000940.1). The resulting stable cell line is referred to herein as HCT15/PRLR. In vitro cytotoxicity of the disclosed payloads, reference compounds, and tested ADCs were evaluated similarly as described in this example using HCT15/PRLR cells with or without […] of Verapamil diluted in normal culture medium. The compounds were tested at concentrations starting at 100 nM with 3-fold serial dilution. All IC50 values are expressed in nM concentration and the percent cell killing (% kill) at the maximum concentration tested was estimated from the following formula (100−% viable cells).

[5] = In vitro plasma stability of ADCs (DAR by LC-MS), cynomolgus monkey plasma; assay type: in vitro ADME; settings: 37° C., 50 μg/mL, DAR at 0 hr 3.8 (LP3 ADC), 4.0 (LP4 ADC), acetyl-hydrolyzed species counted as loss of drug
Method: as §2, §3, §4

| Molecule | IC50, cytotoxicity in the C4-2 cell based assay (CellTiter-Glo) [1] [nM] | % kill (C4-2 cells) [%] | DAR after 72 hours of incubation [2] | DAR after 72 hours of incubation [3] | DAR after 72 hours of incubation [4] | % kill on HCT15/PRLR w/ Verapamil (HCT15/PRLR cells) [%] | % kill on HCT15/PRLR w/o Verapamil (HCT15/PRLR cells) [%] | DAR after 72 hours of incubation [5] |
| --- | --- | --- | --- | --- | --- | --- | --- | --- |
| anti-STEAP2-LP5 (antibody, V domains shown, linker-payload LP5 (DIBAC-suc-PEG4-VA, payload IVd) conjugated; site and DAR of this conjugate not printed (the site-specific procedure uses N297Q, EU numbering, with azido-PEG3-amine on glutamines)) VH: QVQLVESGGGVVQPGRSLRLSCVASGFTISSYGMNWVRQAPGKGLEWVAVISYDGGNKYSVDSVKGRFTISRDNSKNTLYLQMNSLRAEDSAVYYCARGRYFDLWGRGTLVTVSS VL: DIQMTQSPSTLSASVGDRVTITCRASQSISSWLAWYQQKPGRAPNLLISKASSLKSGVPSRFSGSGSGTEFTLTVSSLQPDDFATYYCQQYYSYSYTFGQGTKLEIK | 0.28 | 96 | – | – | – | – | – | – |
| Anti-PRLR-LP3 (conjugate, non-natural residues) VH: QVQLVESGGGVVQPGRSLRLSCGASGFTFRNYGMQWVRQGPGKGLEWVTLISFDGNDKYYADSVKGRFTISRDNSKNTLFLQMNSLRTEDTAVYYCARGGDFDYWGQGTLVTVSS VL: DIQMTQSPSSLSASVGDRVTITCRASQDIRKDLGWYQQKPGKAPKRLIYAASSLHSGVPSRFSGSGSGTEFTLTISSLQPEDFATYYCLQHNSYPMYTFGQGTKLEIK | – | – | 2.7 | 2.7 | 3.0 | 91 | 90 | 2.7 |
| Anti-PRLR-LP4 (conjugate, non-natural residues) VH: QVQLVESGGGVVQPGRSLRLSCGASGFTFRNYGMQWVRQGPGKGLEWVTLISFDGNDKYYADSVKGRFTISRDNSKNTLFLQMNSLRTEDTAVYYCARGGDFDYWGQGTLVTVSS VL: DIQMTQSPSSLSASVGDRVTITCRASQDIRKDLGWYQQKPGKAPKRLIYAASSLHSGVPSRFSGSGSGTEFTLTISSLQPEDFATYYCLQHNSYPMYTFGQGTKLEIK | – | – | 2.7 | 2.6 | 3.0 | 91 | 65 | 2.7 |
